Reference: patent publication US20240425571A1, “GLYCOPROTEIN A REPETITIONS PREDOMINANT (GARP)-BINDING ANTIBODIES AND USES THEREOF” (OHIO STATE INNOVATION FOUNDATION, priority 2021, published 2024)
Changes are numbered by the printed parent chain.

Tests used:
[1] = Aggregation potential by DLS analysis; type: physicochemical
Procedure: Aggregation potential by DLS analysis. DLS was performed on UNcle system (Unchained Labs). DLS was measured at 25° C. Data was calculated and analyzed using UNcle Analysis Software. DLS: Dynamic light scattering PDI: Polydispersity index, PDI=(standard deviation/mean hydrodynamic radius).
Dynamic Light Scattering (DLS) is used to detect aggregation in the antibody sample. “Mode diameter” is protein particle diameter and “mass percentage” is the amount of each size fraction in percentage. “PDI” is Polydispersity Index; the higher this index, the more polydispersity in the sample is. […] Peak 1 is the major peak and represents the IgG monomer. The inventor takes “Peak 1 mass percentage” and “PDI” value into consideration in selecting a lead.

[2] = Thermostability by DSF/SLS (UNcle); type: physicochemical
Procedure: Developability Analysis for PIIO-1 humanization leads. Antibodies were analyzed for thermostability by DSF/SLS. Samples were submitted to the UNcle system (Unchained Labs) for analysis. A temperature ramp of 1° C./min was performed with monitoring from 20° C. to 95° C. for DSF and SLS. UNcle measures SLS at 266 nm and 473 nm. Tm and Tagg were calculated and analyzed by using the UNcle Analysis Software. DSF: Differential scanning fluorimetry; SLS: Static light scattering; Tm: Melting temperature; Tagg 266: Thermal aggregation when SLS at 266 nm; Tagg 473: Thermal aggregation when SLS at 473 nm. A summary is shown below in Table F:
IgG is a multi-domain structure and each domain has its own melting Temperature (Tm). […] Fabs have Tm in a wide range, generally about 50-85° C., due to large sequence variation. Therefore, the Tm values measured by various analytical techniques are usually “apparent” transition temperatures rather than the real Tm for each domain. In the case of whole IgG, there are often 2-3 Tm values in DSF measurement, presenting some challenge in determining which Tm represents which domain.
Tagg is the temperature at which SLS starts to detect aggregation particles. Tagg266 measures SLS at 266 nm, which is more sensitive and suitable to detect smaller aggregation particles. Tagg473 measures SLS at 473 nm and is better to detect larger particles.

Ag(−) cell = test: FACS analysis with Ag(−) cell (non-specific binding); conditions: 5 ug/ml
Procedure: Methods—FACS analysis. Cell preparation: Cell were harvested and washed with PBS+2% FBS for one time. Cell density was adjusted to 1.5E6/mL in PBS/2% FBS. Cell were added to 96 U-bottom well plates at 100 μL/well. Antibody samples preparation: Antibody in supernatant was adjusted to 10 μg/mL using PBS+2% FBS, with serial 5 times dilution performed to obtain 3 concentrations of antibody solution. The blank was PBS+2% FBS. Antibody solutions were placed into 96 U-bottom well plates at 100 μL/well in the same arranging pattern as the cell preparation. Incubation: The antibody samples (100 μl) were mixed with the cells (100 μl), and incubated at RT for 1 h, then centrifuged the plate for 3 min at 1000 rpm (swing bucket). The supernatant was pipetted and the cells were washed with PBS+2% FBS for one time. Incubation with the secondary antibody: Cy3-Conjugated AffiniPure Goat Anti-Human IgG was diluted 250× by PBS+2% FBS, and added to the 96 U-bottom well plate with 100 μl/well, then incubated at RT for 30 min. After that, the plate was centrifuged at 1000 rpm for 3 min and the supernatant was pipetted out. The cell was washed with PBS+2% FBS twice. Cells were re-suspended in 200 μl PBS+2% FBS and analyzed on FACS. The MFI of total live cells were used as binding signal.
Methods—heat treatment. Culture supernatant was serial diluted to the indicated concentration of IgG with cell media and heated at 70° C. for 5 mins on a PCR machine, then quickly cooled down to room temperature.

[3] = Reducing CE-SDS (heterogeneity); type: physicochemical
Procedure: (§1) Analysis of the heterogeneity by Capillary Electrophoresis (CE). The sample was prepared in reducing and non-reducing labeling buffer before being submitted to the CE analysis. A summary of the Reducing-CE-SDS and Non-Reducing-CE-SDS results are shown in FIG. 13A/Table H and FIG. 13B/Table I, respectively: […]

Baculovirus = Baculovirus (BV) ELISA for non-specific binding
Procedure: Baculovirus (BV) ELISA was employed as a preliminary assay to evaluate antibody's potential nonspecific binding risk.
In Baculovirus (BV) ELISA, the inventor used Rituxan Mab as reference. […] If a clone only has binding on BV, but not on 293 cells, it will be considered as having a low risk of non-specific binding.
Methods—Baculovirus ELISA. Plates are coated with 50 μl of 1:500 diluted Baculovirus sample in PBS in each well. Plates are kept at 4° C. for overnight. The plates are washed with 300 μL of wash buffer ×3 and 200 μl blocking buffer (1% BSA) is added at RT for 60 min. Plates are washed with 300 μl of wash buffer ×3 and 100 μl of diluted Abs are added at different concentrations/well, followed by RT incubation for 1 hr. Plates are washed with 300 μl of wash buffer ×6 and 100 μl of 1:5000 HRP conjugated second Ab in PBS is added followed by RT incubation for 1 hr. The plates are washed with 300 μl of wash buffer ×6. Developing buffer is added and the plate is read.

antigen = target: T1, antigen (Homo sapiens, UniProt Q14392); test: Label-free kinetic binding assay on Gator
T1 sequence (Q14392 20-662): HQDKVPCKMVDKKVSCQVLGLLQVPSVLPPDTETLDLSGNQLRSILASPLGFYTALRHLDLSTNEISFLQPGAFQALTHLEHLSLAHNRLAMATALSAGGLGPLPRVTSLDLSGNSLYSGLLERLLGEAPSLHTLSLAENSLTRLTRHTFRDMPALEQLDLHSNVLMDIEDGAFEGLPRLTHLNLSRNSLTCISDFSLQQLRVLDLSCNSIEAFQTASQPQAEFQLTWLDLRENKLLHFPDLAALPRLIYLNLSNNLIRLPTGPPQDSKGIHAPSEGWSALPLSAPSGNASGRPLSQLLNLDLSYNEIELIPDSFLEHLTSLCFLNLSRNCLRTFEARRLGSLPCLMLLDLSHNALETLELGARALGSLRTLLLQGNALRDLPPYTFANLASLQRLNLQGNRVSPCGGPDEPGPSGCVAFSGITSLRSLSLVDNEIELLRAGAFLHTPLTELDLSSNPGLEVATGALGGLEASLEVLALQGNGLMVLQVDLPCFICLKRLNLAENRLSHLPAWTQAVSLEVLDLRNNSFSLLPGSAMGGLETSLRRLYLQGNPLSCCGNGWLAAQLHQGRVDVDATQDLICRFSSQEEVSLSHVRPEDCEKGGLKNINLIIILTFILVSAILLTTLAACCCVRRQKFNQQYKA
Procedure: Affinity measurement. Label-free kinetic binding assay was performed on Gator (similar to Octet).
Methods. Affinity was measured on Gator (ProbeLife, Palo Alto). In brief, the purified IgG sample was diluted in K buffer at 2 μg/ml, and the antigen was diluted at 5 μg/ml. The antibody-loaded anti-human Fc probes were dipped in antigen wells for 5 mins and then moved to K buffer wells for 5 mins. In the whole process, the sample plate was shaken at 1,000 rpm. The data analysis was carried out using Gator software (ProbeLife).

[4] = Non-reducing CE-SDS (heterogeneity); type: physicochemical
Procedure: as §1

[5] = ramp 1° C./min, 20° C. to 95° C.
[6] = IgG 2 μg/ml on anti-human Fc probes, antigen 5 μg/ml

B1: H1L2: humanized PIIO-1 antibody, VH SEQ ID NO: 20 and VL SEQ ID NO: 24 (antibody, V domains shown)
VH: QVQLQESGPGLVKPSQTLSLTCTVSGYSITSDYAWNWIRQFPGNKLEWMGYISYSGSTSYTPSLKSRVTISRDTSKNHFSLKLSSVTAADTAVYYCAKSGGDYYGSSSYWYFDVWGQGTMVTVSS
VL: DIVLTQSPSSLAVSLGERVTMNCKSSQSLLNSRSQKNYLAWYQQKPGQPPKLLIYGASTRGSGVPDRFSGSGSGTDFTLTISSVQAEDVAVYYCQNDHSYPFTFGQGTKLEIKR
With B1 the “comparison of humanized antibodies by Table G” value [1] was “superior to huPIIO-1VH1VL1”, the “Peak 1 Mass” value ([1]; DLS at 25° C.) was 99.94% and the “Peak 1 Mode Diameter” value ([1]; DLS at 25° C.) was 9.68 nm. The “Peak 1 PDI” value ([1]; DLS at 25° C.) was 0.361, the “Peak 2 Mass” value ([1]; DLS at 25° C.) was 0% and the “PDI compared with WT” value ([1]; listed as VH1VL2) was “slightly higher PDI than that of the chimeric clone”. The “thermostability compared with parental 4D3 chimeric antibody (Table F)” value [2] was “superior thermostability over the parental 4D3 chimeric antibody”, the “SLS Tagg 266” value ([2]; SLS at 266 nm) was 78.8 °C and the “SLS Tagg 473” value ([2]; SLS at 473 nm) was 79.3 °C. The aggregation risk ([2]; from Tagg266 and Tagg473 in SLS assay) was “very low aggregation risk”, the “DSF TM2” value [2, 5] was 76.7 °C and the “DSF Tm1” value [2, 5] was 70.0 °C. For the same molecule, the “DSF Tm3” value [2, 5] was 87.5 °C, the “FACS with Ag(−) cell (MFI)” value (Ag(−) cell; Heating) was 3.35 and the “FACS with Ag(−) cell (MFI)” value (Ag(−) cell; Non-Heating) was 3.24. For the same molecule, the “homogeneity (Table H)” value [3] was “superior homogeneity versus clone huPIIO-1VH2VL1”, the “OTHER (%)” value ([3]; Reducing-CE-SDS) was 0.9% and the “PK#1 (%)” value ([3]; Reducing-CE-SDS) was 1.4%. For the same molecule, the “PK#2 (%)” value ([3]; Reducing-CE-SDS) was 29.1%, the “PK#3 (%)” value ([3]; Reducing-CE-SDS) was 68.7% and the “BV ELISA with purified IgG, raw BV binding data” value (“BV ELISA with purified IgG” for short) (Baculovirus; Ab. Conc. 0.15625 ug/ml) was 15.6. The “BV ELISA with purified IgG” value (Baculovirus; Ab. Conc. 0.3125 ug/ml) was 15.4, the “BV ELISA with purified IgG” value (Baculovirus; Ab. Conc. 0.625 ug/ml) was 23.5 and the “BV ELISA with purified IgG” value (Baculovirus; Ab. Conc. 1.25 ug/ml) was 26.6. For the same molecule, the “BV ELISA with purified IgG” value (Baculovirus; Ab. Conc. 2.5 ug/ml) was 39.6, the “BV ELISA with purified IgG” value (Baculovirus; Ab. Conc. 5 ug/ml) was 38.1 and the “BV ELISA with purified IgG” value (Baculovirus; Ab. Conc. 10 ug/ml) was 102.3. The “BV ELISA with purified IgG” value (Baculovirus; Ab. Conc. 20 ug/ml) was 253.4, the BV-binding in words (Baculovirus; purified antibodies, Rituxan as reference) was “a bit higher signal” and the “KD value compared with the chimeric” value (antigen) was “same KD value to the chimeric”. The Rmax (antigen; [6]) was 0.885, the koff (antigen; [6]) was 0.000813 and the kon (antigen; [6]) was 9.98E+04. The “Main Peak (%)” value [4] was 97.6% and the “OTHER (%)” value [4] was 2.4%.

B2: H4L3: humanized PIIO-1 antibody, VH SEQ ID NO: 18 and VL SEQ ID NO: 22 (antibody, V domains shown)
VH: B1 VH with Q1D, V68I, S80F, K82Q, A89E, V93T, M120T
VL: B1 VL with L15A, N22S, Q106S
For B2, the “FACS with Ag(−) cell (MFI)” value (Ag(−) cell; Heating) was 3.36 and the “FACS with Ag(−) cell (MFI)” value (Ag(−) cell; Non-Heating) was 3.27.

B3: H2L3: humanized PIIO-1 antibody, VH SEQ ID NO: 21 and VL SEQ ID NO: 22 (antibody, V domains shown)
VH: B1 VH with V68I, S80F
VL: B1 VL with L15A, N22S, Q106S
For B3, the “FACS with Ag(−) cell (MFI)” value (Ag(−) cell; Heating) was 3.35 and the “FACS with Ag(−) cell (MFI)” value (Ag(−) cell; Non-Heating) was 3.18.

B4: H3L3: humanized PIIO-1 antibody, VH SEQ ID NO: 19 and VL SEQ ID NO: 22 (antibody, V domains shown)
VH: B1 VH with Q1D, V68I, S80F, V93T, M120T
VL: B1 VL with L15A, N22S, Q106S
With B4 the “FACS with Ag(−) cell (MFI)” value (Ag(−) cell; Heating) was 3.29 and the “FACS with Ag(−) cell (MFI)” value (Ag(−) cell; Non-Heating) was 3.16.

B5: H4L1: humanized PIIO-1 antibody, VH SEQ ID NO: 18 and VL SEQ ID NO: 23 (antibody, V domains shown)
VH: B1 VH with Q1D, V68I, S80F, K82Q, A89E, V93T, M120T
VL: B1 VL with V19A, V84L
In the case of B5, the “FACS with Ag(−) cell (MFI)” value (Ag(−) cell; Heating) is reported as 3.25 and the “FACS with Ag(−) cell (MFI)” value (Ag(−) cell; Non-Heating) is reported as 3.11.

B6: H3L2: humanized PIIO-1 antibody, VH SEQ ID NO: 19 and VL SEQ ID NO: 24 (antibody, V domains shown)
VH: B1 VH with Q1D, V68I, S80F, V93T, M120T
VL: B1 VL
For B6, the “FACS with Ag(−) cell (MFI)” value (Ag(−) cell; Heating) was 3.26 and the “FACS with Ag(−) cell (MFI)” value (Ag(−) cell; Non-Heating) was 3.37.

B7: H1L3: humanized PIIO-1 antibody, VH SEQ ID NO: 20 and VL SEQ ID NO: 22 (antibody, V domains shown)
VH: B1 VH
VL: B1 VL with L15A, N22S, Q106S
With B7 the “FACS with Ag(−) cell (MFI)” value (Ag(−) cell; Heating) was 3.33 and the “FACS with Ag(−) cell (MFI)” value (Ag(−) cell; Non-Heating) was 3.22.

B8: H4L2: humanized PIIO-1 antibody, VH SEQ ID NO: 18 and VL SEQ ID NO: 24 (antibody, V domains shown)
VH: B1 VH with Q1D, V68I, S80F, K82Q, A89E, V93T, M120T
VL: B1 VL
For B8, the “FACS with Ag(−) cell (MFI)” value (Ag(−) cell; Heating) was 3.29 and the “FACS with Ag(−) cell (MFI)” value (Ag(−) cell; Non-Heating) was 3.26.

B9: H3L1: humanized PIIO-1 antibody, VH SEQ ID NO: 19 and VL SEQ ID NO: 23 (antibody, V domains shown)
VH: B1 VH with Q1D, V68I, S80F, V93T, M120T
VL: B1 VL with V19A, V84L
For B9, the “FACS with Ag(−) cell (MFI)” value (Ag(−) cell; Heating) was 3.4 and the “FACS with Ag(−) cell (MFI)” value (Ag(−) cell; Non-Heating) was 3.28.

B10: H2L2: humanized PIIO-1 antibody, VH SEQ ID NO: 21 and VL SEQ ID NO: 24 (antibody, V domains shown)
VH: B1 VH with V68I, S80F
VL: B1 VL
For B10, the “FACS with Ag(−) cell (MFI)” value (Ag(−) cell; Non-Heating) was 3.24.
